Reference: PMC10831263

Target: T1, his-tagged NCOA4 (383–522nd) recombinant protein, WT (human), Q13772
T1 chain: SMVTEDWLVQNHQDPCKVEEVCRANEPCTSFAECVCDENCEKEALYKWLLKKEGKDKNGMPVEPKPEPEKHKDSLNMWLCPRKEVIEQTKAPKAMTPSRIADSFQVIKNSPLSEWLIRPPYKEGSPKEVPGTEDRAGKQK
Test: nonreducing gel electrophoresis; purified his-tagged NCOA4 (383–522nd) WT or mutants on a nonreducing gel, with or without β-ME (10 mM) or DTT (5 mM); the reductants converted the dimer into monomers
Conditions: remark: other sources report otherwise

B1: his-tagged NCOA4 (383–522nd) recombinant protein, WT, Q13772-1 383-522 (domain or fragment)
chain: T1 chain
stoichiometry N: 2
